Target: RepΔC33 (Rep lacking the C-terminal 33 residues) (E. coli) (UniProt P09980)
Test: not stated; apparent KD (equilibrium dissociation constant), Figure S5; the method is not told in the text shown (SPR is the only quantitative binding method that the paper names)

Kd: 1700 nM
Substance: E. coli replicative helicase DnaB, purified (from UniProt P0ACB0 1-471) (enzyme)
